Experimental data as given in patent publication US20240254220A1, “COMBINED THERAPY USING ANTI-CD300C ANTIBODY” (CentricsBio, Inc., priority 2021, published 2024).

Legend:
[1] = test system: CD300a antigen and seven B7 family protein antigens (PD-L1, ICOS Ligand, CD276, B7-H4, CD80, CD86, CD273); assay: Binding specificity ELISA against B7 family proteins; conditions: antigens coated at 8 μg/mL
Procedure: In order to identify that the anti-CD300c monoclonal antibody CL7 specifically binds only to CD300c without binding to other B7 family proteins, binding ELISA was performed. More specifically, each of CD300c antigen, CD300a antigen, or seven B7 family protein antigens (PD-L1 [B7-H1] (Sino Biological), ICOS Ligand[B7-H2] (Sino Biological), CD276[B7-H3] (Sino Biological), B7-H4 (Sino Biological), CD80[B7-1] (Sino Biological), CD86[B7-2] (Sino Biological), CD273[PD-L2] (Sino Biological)) in a coating buffer (0.1 M sodium carbonate, pH 9.0) was coated on an ELISA plate at a concentration of 8 μg/mL per well, and then bound to the plate by incubation at 2° C. to 8° C. overnight. The unbound antigen was removed by washing with PBST three times, and then […] of blocking buffer (5% skim milk in PBST) was added to each well. Subsequently, blocking was performed at room temperature for 1 hour, followed by washing again with PBST. Thereafter, CL7 was diluted in quadruplicate with PBS, incubated with the antigen at room temperature for 1 hour for antigen binding 1 hour later, and washed three times with PBST. […] Then, 2 N sulfuric acid solution was added to terminate the development reaction, and the absorbance was measured at 450 nm to identify the antibody specifically binding to the CD300c antigen.

[2] = test system: colon cancer cell line (CT26) tumor; assay: Tumor immune cell FACS analysis in CT26 syngeneic mouse tumor model; assay type: in vivo, BALB/c mice
Text: In order to identify effects of the anti-CD300c monoclonal antibody CL7 on tumor-associated macrophages under in vivo conditions, a colon cancer cell line (CT26) at 2×10^5 cells was transplanted by subcutaneous injection into 8-week-old BALB/c mice to prepare syngeneic mouse tumor models. Animal breeding and experiments were all conducted in a specific pathogen free (SPF) facility. In addition, 12 days after transplantation of the colon cancer cell line, the mice with a tumor size of 50 mm^3 to 100 mm^3 were separately administered the anti-CD300c monoclonal antibody, and for a control group, the mice were injected with the same amount of phosphate buffered saline (PBS). The mice were intraperitoneally injected with 25 mg/kg of each substance twice a week for two weeks over a total of 4 times. On day 25 after the injection, the mice were sacrificed, and the tumor tissue was collected from each of six mice in the CL7 25 mg/kg administration group showing a highest antitumor effect compared with the control group. The tumor tissue was taken out and then incubated at 37° C. for 1 hour in a mixed solution of collagenase D (20 mg/mL) and DNase I (2 mg/mL). Thereafter, the resultant product was filtered through a 70 μm cell strainer, followed by the lysis of red blood cells, and then again filtered through a nylon mesh. Subsequently, the single cell suspension was blocked with CD16/32 antibody (from Invitrogen), and the cells were stained with a staining solution for checking cell viability (from Invitrogen), and antibodies (from Abcam) to the total macrophage marker F4/80 and the M1 macrophage marker iNOS. Then, the data were read with CytoFLEX flow cytometer and analyzed with FlowJo software.
In order to identify effects of the anti-CD300c monoclonal antibody CL7 on CD8+ T cells under in vivo conditions, syngeneic mouse tumor models were prepared as in Experimental Example 3.2 and administered the anti-CD300c monoclonal antibody at the same concentration.
(§1) On day 25 after the injection, the mice were sacrificed, and the tumor tissue was collected from each of six mice in the CL7 25 mg/kg administration group showing a highest antitumor effect compared with the control group. The tumor tissue was taken out and then incubated at 37° C. for 1 hour in a mixed solution of collagenase D (20 mg/mL) and DNase I (2 mg/mL). Thereafter, the resultant product was filtered through a 70 μm cell strainer, followed by the lysis of red blood cells, and then again filtered through a nylon mesh. Subsequently, the single cell suspension was blocked with CD16/32 antibody (from Invitrogen), and the cells were stained with a staining solution for checking cell viability and a CD8+ antibody (from Abcam) and a CD4+ antibody (from Abcam). Thereafter, the data were read with CytoFLEX flow cytometer and analyzed with FlowJo software.
as §1, with “In order to identify whether the anti-CD300c monoclonal antibody CL7 increases the number of CD8+ T cells in a tumor-specific manner, syngeneic mouse tumor models were prepared as in Experimental Example 3.2 and administered the anti-CD300c monoclonal antibody at the same concentration. On” for “On”, “AH1 tetramer” for “a CD8+ antibody (from Abcam) and a CD4+”, “software. […]” for “software.”

[3] = Experimental Example 3.7, 25 mg/kg i.p., day 25

B1: CL7: anti-CD300c monoclonal antibody, VH3VL1 phage library, VH SEQ ID 327, VL SEQ ID 328 (antibody, V domains shown)
VH: EVQLLESGGGLVQPGGSLRLSCAASGFTFSRYAMSWVRQAPGKGLEWVSAISGSGGSTYYADSVKGRFTISRDNSKNTLYLQMNSLRAEDTAVYYCARSSQGIFDIWGQGTLVTVSS
VL: QSVLTQPPSASGTPGQRVTISCSGNNIGTRRVHWYQQLPDTAPKLLIYSKNNRPSGVPDRFSGSKSGTSASLAISGLRSEDEADYYCAAWDDSLSGPVFGGGTKLTVL
modifications: CL7 Heavy Chain Variable Region; CL7 Light Chain Variable Region
[1]
  binding specificity versus other similar proteins: specifically recognized only CD300c without binding to other similar proteins
[2]; 25 mg/kg i.p. twice a week, 4 times, day 25, vs PBS
  expression level of M1 type tumor-associated macrophages in cancer tissue: increased
[2]; 25 mg/kg i.p., day 25
  CD8+ T cells compared with Treg T cells: increased
  expression of AH1 tetramer in CD8+ T cells: increased
[2]; 25 mg/kg i.p., day 25, CD8+/CD4+ staining
  number of T cells in tumor: increased
[2]; [3]
  activated CD8+ T cells: significantly increased
  regulatory T cells: inhibited
  tumor-associated macrophage phenotype: repolarized tumor-associated macrophages towards M1 phenotype
